Like-named read-outs stand apart in the source and are kept apart here. Ends that are not written are not given here. * marks the point of attachment. diazirine‑based cleavable photocrosslinker = not defined here; Biotin = O=C1N[C@H]2[C@H](CS[C@H]2CCCCC(=O)*)N1
How the values were obtained:
Assay in all cases: cross-linking
[1] = molecular target: ERK2 (human, UniProt P28482 1-360)
[2] = molecular target: T1, JNK1 β-1 isoform lacking 20 amino acids from the C-terminus (JNK1 ΔC20) (human, UniProt P45983-3 1-364)
[3] = molecular target: T1, JNK1 β-1 isoform lacking 20 amino acids …; remark: listed apart in the source

Chain of ERK2 (P28482 whole entry, canonical isoform): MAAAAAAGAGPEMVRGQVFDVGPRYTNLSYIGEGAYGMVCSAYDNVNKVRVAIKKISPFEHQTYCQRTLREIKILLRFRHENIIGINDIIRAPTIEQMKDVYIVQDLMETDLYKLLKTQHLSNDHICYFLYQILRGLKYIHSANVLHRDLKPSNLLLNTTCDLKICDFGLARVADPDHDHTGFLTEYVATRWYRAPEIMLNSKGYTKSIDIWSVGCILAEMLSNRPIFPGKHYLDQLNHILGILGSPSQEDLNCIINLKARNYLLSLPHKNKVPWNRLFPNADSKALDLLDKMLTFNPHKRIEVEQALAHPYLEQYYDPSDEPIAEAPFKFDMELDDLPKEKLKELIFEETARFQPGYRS

| Binder | binding result [1] | binding result [2] | binding result [3] |
| --- | --- | --- | --- |
| Biotin-C(diazirine‑based cleavable photocrosslinker)GKRKALKLNFANW (reading uncertain) [MKK4 D-motif peptide I] | binds | binds |  |
| Biotin-C(diazirine‑based cleavable photocrosslinker)QGKRKALKLNFANW (reading uncertain) [MKK4 D-motif peptide wt (wild-type)] |  |  | binds |
| Biotin-C(diazirine‑based cleavable photocrosslinker)KRKALKLNFANW (reading uncertain) [MKK4 D-motif peptide II] | binds | binds |  |
